Experimental data taken from patent US20180111996A1 (Merck Sharp & Dohme, published 2018).
Positions count from the first letter of the chain named. Names and notes keep the numbering of the source. Like-named read-outs stand apart in the source and are kept apart here.

Assays:
[1] = biological target: T1, cynomolgus macaque PD-1 receptor on stably transfected CHO-K1 cells (cynomolgus macaque, UniProt B0LAJ3 25-288); assay: inhibition of ligand (PD-L1, PD-L2) binding to cynomolgous PD-1
T1 construct: also called cynomolgus PD-1; cynomolgous PD-1

[2] = biological target: cynomolgous PD-1 (form in the kinetic assay not stated) (cynomolgus macaque); assay: kinetic analysis, format for cynomolgus PD-1 not stated
[3] = biological target: T2, human PD-1 (hPD-1) receptor expressed on cells (human, UniProt Q15116 25-288); assay: CELISA on CHO-hPD-1 cells
T2 construct: whole, on cells; also called hPD-1/CHO; CHO-hPD1

[4] = biological target: T2, human PD-1 (hPD-1) receptor expressed …; assay: FMAT, blockade of hPD-L1/Fc binding to CHO-hPD-1 cells
[5] = biological target: T2, human PD-1 (hPD-1) receptor expressed …; assay: FMAT, blockade of hPD-L2/Fc binding to CHO-hPD-1 cells
hPD-1/Fc (R & D Systems) [6] = biological target: T3, hPD-1/Fc (R & D Systems) (human, UniProt Q15116 25-167); assay: bio-light interferometry (ForteBio Octet), PD-1/Fc on biosensor
T3 construct: also called human PD-1/Fc; PD-1-Fc fusion protein; not shown: Fc part of the bought fusion protein, not described

hPD-1/Fc (R & D Systems) [7] = biological target: T3, hPD-1/Fc (R & D Systems); assay: protein ELISA, hPD-1/Fc immobilized
[8] = biological target: T2, human PD-1 (hPD-1) receptor expressed …; assay: FMAT, blockade of labeled hPD-L1/Fc binding to CHO-hPD-1 cells
[9] = biological target: T2, human PD-1 (hPD-1) receptor expressed …; assay: FMAT competition on CHO-hPD-1 cells; blocked ligand: fluorescently labelled hPD-L1/Fc at a constant concentration
[10] = biological target: T2, human PD-1 (hPD-1) receptor expressed …; assay: FACS, blockade of hPD-L1/Fc binding to CHO cells expressing human PD-1
[11] = biological target: T2, human PD-1 (hPD-1) receptor expressed …; assay: CELISA on CHO-hPD-1 cells; remark: listed apart in the source
[12] = biological target: T4, mouse PD-1 receptor on stably transfected CHO-K1 cells (mouse, UniProt Q02242 25-288); assay: CELISA and other assays on mouse PD-1 transfected CHO-K1 cells
T4 construct: whole, on cells
T4 sequence (looked up): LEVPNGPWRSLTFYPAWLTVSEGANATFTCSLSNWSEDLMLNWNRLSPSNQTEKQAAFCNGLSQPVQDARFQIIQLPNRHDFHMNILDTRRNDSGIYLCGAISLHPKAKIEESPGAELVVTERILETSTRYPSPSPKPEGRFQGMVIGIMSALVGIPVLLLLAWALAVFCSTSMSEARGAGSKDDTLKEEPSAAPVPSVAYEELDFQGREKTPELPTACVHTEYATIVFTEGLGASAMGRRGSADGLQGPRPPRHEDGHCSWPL

[13] = biological target: T2, human PD-1 (hPD-1) receptor expressed …; assay: FMAT competition on CHO-hPD-1 cells; blocked ligand: fluorescently labelled hPD-L2/Fc at a constant concentration
[14] = biological target: T2, human PD-1 (hPD-1) receptor expressed …; assay: FACS, blockade of hPD-L1/Fc binding to CHO cells expressing human PD-1; remark: listed apart in the source
[15] = biological target: T2, human PD-1 (hPD-1) receptor expressed …; assay: CELISA on CHO cells expressing human PD-1, 450/620 nm
hPD-1/Fc (R & D Systems) [16] = biological target: T3, hPD-1/Fc (R & D Systems); assay: protein ELISA, hPD-1/Fc immobilized; remark: listed apart in the source
hPD-1/Fc (R & D Systems) [17] = biological target: T3, hPD-1/Fc (R & D Systems); assay: bio-light interferometry (ForteBio Octet), PD-1/Fc on biosensor; remark: listed apart in the source
[18] = biological target: T1, cynomolgus macaque PD-1 receptor on …; assay: CELISA on cynomolgus PD-1 transfected CHO-K1 cells
hPD-1/Fc (R & D Systems) [19] = biological target: T3, hPD-1/Fc (R & D Systems); assay: bio-light interferometry (ForteBio Octet); lower end tied to 09A by Table II
[20] = biological target: T2, human PD-1 (hPD-1) receptor expressed …; assay: FMAT, blockade of labeled hPD-L2/Fc binding to CHO-hPD-1 cells
[21] = biological target: T2, human PD-1 (hPD-1) receptor expressed …; assay: cell-based or functional assay

T2 sequence (Q15116 25-288): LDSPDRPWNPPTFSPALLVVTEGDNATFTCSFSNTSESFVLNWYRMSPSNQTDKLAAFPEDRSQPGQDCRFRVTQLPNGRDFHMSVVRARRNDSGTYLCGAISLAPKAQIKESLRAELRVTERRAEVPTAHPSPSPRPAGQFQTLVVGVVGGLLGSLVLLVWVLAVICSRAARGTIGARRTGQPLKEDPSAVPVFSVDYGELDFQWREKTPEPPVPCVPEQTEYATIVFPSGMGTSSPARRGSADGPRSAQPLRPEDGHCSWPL
T1 sequence (B0LAJ3 entry or part of it limits assumed): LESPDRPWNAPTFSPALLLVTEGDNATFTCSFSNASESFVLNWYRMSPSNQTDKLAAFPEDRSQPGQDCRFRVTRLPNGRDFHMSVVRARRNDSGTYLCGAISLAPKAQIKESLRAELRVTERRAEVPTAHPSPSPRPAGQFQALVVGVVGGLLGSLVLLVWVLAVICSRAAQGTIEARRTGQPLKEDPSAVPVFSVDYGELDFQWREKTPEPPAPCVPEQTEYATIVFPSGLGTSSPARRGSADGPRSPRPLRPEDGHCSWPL
T3 sequence (Q15116 25-167 limits assumed): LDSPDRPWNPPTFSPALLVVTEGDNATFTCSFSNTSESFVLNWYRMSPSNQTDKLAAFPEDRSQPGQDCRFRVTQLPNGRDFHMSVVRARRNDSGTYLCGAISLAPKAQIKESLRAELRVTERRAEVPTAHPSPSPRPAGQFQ

B1: h409A11 (antibody, human IgG4 S228P, kappa, V domains shown)
VH: QVQLVQSGVEVKKPGASVKVSCKASGYTFTNYYMYWVRQAPGQGLEWMGGINPSNGGTNFNEKFKNRVTLTTDSSTTTAYMELKSLQFDDTAVYYCARRDYRFDMGFDYWGQGTTVTVSS
VL: EIVLTQSPATLSLSPGERATLSCRASKGVSTSGYSYLHWYQQKPGQAPRLLIYLASYLESGVPARFSGSGSGTDFTLTISSLEPEDFAVYYCQHSRDLPLTFGGGTKVEIKR
notes: also called humanized IgG4 version of 09A antibody (409A-H + K09A-L-11)
[1]
  IC50: < 1 nM
[2]
  Kd: < 0.12 nM

B2: h409A16 (antibody, human IgG4 S228P, kappa, V domains shown)
VH: B1 VH
VL: EIVLTQSPLSLPVTPGEPASISCRASKGVSTSGYSYLHWYLQKPGQSPQLLIYLASYLESGVPDRFSGSGSGTDFTLKISRVEAEDVGVYYCQHSRDLPLTFGQGTKLEIKR
notes: also called humanized IgG4 version of 09A antibody (409A-H + K09A-L-16)
[3]
  EC50: 0.063 nM
[4]
  IC50: 0.696 nM
[5]
  IC50: 0.81 nM
[1]
  IC50: < 1 nM
hPD-1/Fc (R & D Systems) [6]
  Kd: 0.0273 nM
  koff: 2.72e-05 s⁻¹
  kon: 997000 M⁻¹ s⁻¹
[2]
  Kd: < 0.12 nM
hPD-1/Fc (R & D Systems) [7]
  EC50: 0.09 nM

B3: h409A17 (antibody, human IgG4 S228P, kappa, V domains shown)
VH: B1 VH
VL: B2 VL with E1D, L4M, S7T, D74A, V89L
notes: also called humanized IgG4 version of 09A antibody (409A-H + K09A-L-17)
[3]
  EC50: 0.083 nM
[4]
  IC50: 0.818 nM
[5]
  IC50: 0.463 nM
[1]
  IC50: < 1 nM
hPD-1/Fc (R & D Systems) [6]
  Kd: 0.191 nM
  koff: 0.000191 s⁻¹
  kon: 1e+06 M⁻¹ s⁻¹
hPD-1/Fc (R & D Systems) [7]
  EC50: 0.088 nM

B4: hPD-1.09A (antibody, V domains shown)
VH: QVQLQQPGAELVKPGTSVKLSCKASGYTFTNYYMYWVKQRPGQGLEWIGGINPSNGGTNFNEKFKNKATLTVDSSSSTTYMQLSSLTSEDSAVYYCTRRDYRFDMGFDYWGQGTTLTVSS
VL: DIVLTQSPASLAVSLGQRAAISCRASKGVSTSGYSYLHWYQQKPGQSPKLLIYLASYLESGVPARFSGSGSGTDFTLNIHPVEEEDAATYYCQHSRDLPLTFGTGTKLELK
[8]
  IC50: 0.0009 nM
[9]
  IC50 (read off the curve): ~0.8 nM
[10]
  IC50: 0.0008 nM
[11]
  EC50: 0.113 nM
[12]
  binding result: no binding
[13]
  IC50 (read off the curve): ~2 nM
[14]
  IC50: < 1 nM
[15]
  EC50 (read off the curve): ~0.1 nM
hPD-1/Fc (R & D Systems) [16]
  EC50: 0.123 nM
hPD-1/Fc (R & D Systems) [17]
  Kd: 0.022 nM
  koff: 3.6e-05 s⁻¹
  kon: 1.64e+06 M⁻¹ s⁻¹
[18]
  binding result: binds
hPD-1/Fc (R & D Systems) [19]
  Kd: 0.02 nM
[20]
  IC50: 0.0017 nM
[21]
  fold change in IFNgamma, SEB stimulated blood of patient A (prostate), 25 ug/mL hPD-1.09A vs SEB alone: 1.9 fold
  fold change in IFNgamma, SEB stimulated blood of patient B (prostate), 25 ug/mL hPD-1.09A vs SEB alone: 1.2 fold
  fold change in IFNgamma, SEB stimulated blood of patient C (prostate), 25 ug/mL hPD-1.09A vs SEB alone: 2 fold
  fold change in IFNgamma, SEB stimulated blood of patient D (melanoma), 25 ug/mL hPD-1.09A vs SEB alone: 1.5 fold
  fold change in IL-2, SEB stimulated blood of patient A (prostate), 25 ug/mL hPD-1.09A vs SEB alone: 3.4 fold
  fold change in IL-2, SEB stimulated blood of patient B (prostate), 25 ug/mL hPD-1.09A vs SEB alone: 2.1 fold
  fold change in IL-2, SEB stimulated blood of patient C (prostate), 25 ug/mL hPD-1.09A vs SEB alone: 2 fold
  fold change in IL-2, SEB stimulated blood of patient D (melanoma), 25 ug/mL hPD-1.09A vs SEB alone: 2 fold
  fold change in IL-5, SEB stimulated blood of patient A (prostate), 25 ug/mL hPD-1.09A vs SEB alone: 0.7 fold
  fold change in IL-5, SEB stimulated blood of patient B (prostate), 25 ug/mL hPD-1.09A vs SEB alone: 0.4 fold
  fold change in IL-5, SEB stimulated blood of patient C (prostate), 25 ug/mL hPD-1.09A vs SEB alone: 0.9 fold
  fold change in IL-5, SEB stimulated blood of patient D (melanoma), 25 ug/mL hPD-1.09A vs SEB alone: 0.4 fold
  fold change in IL-6, SEB stimulated blood of patient A (prostate), 25 ug/mL hPD-1.09A vs SEB alone: 2.1 fold
  fold change in IL-6, SEB stimulated blood of patient B (prostate), 25 ug/mL hPD-1.09A vs SEB alone: 2.2 fold
  fold change in IL-6, SEB stimulated blood of patient C (prostate), 25 ug/mL hPD-1.09A vs SEB alone: 2.4 fold
  fold change in IL-6, SEB stimulated blood of patient D (melanoma), 25 ug/mL hPD-1.09A vs SEB alone: 1.9 fold
  fold change in IL-13, SEB stimulated blood of patient A (prostate), 25 ug/mL hPD-1.09A vs SEB alone: 0.8 fold
  fold change in IL-13, SEB stimulated blood of patient B (prostate), 25 ug/mL hPD-1.09A vs SEB alone: 0.6 fold
  fold change in IL-13, SEB stimulated blood of patient C (prostate), 25 ug/mL hPD-1.09A vs SEB alone: 1.1 fold
  fold change in IL-13, SEB stimulated blood of patient D (melanoma), 25 ug/mL hPD-1.09A vs SEB alone: 0.5 fold
  fold change in IL-17, SEB stimulated blood of patient A (prostate), 25 ug/mL hPD-1.09A vs SEB alone: 1.8 fold
  fold change in IL-17, SEB stimulated blood of patient B (prostate), 25 ug/mL hPD-1.09A vs SEB alone: 2.6 fold
  fold change in IL-17, SEB stimulated blood of patient C (prostate), 25 ug/mL hPD-1.09A vs SEB alone: 2.4 fold
  fold change in IL-17, SEB stimulated blood of patient D (melanoma), 25 ug/mL hPD-1.09A vs SEB alone: 2 fold
  fold change in TNFalpha, SEB stimulated blood of patient A (prostate), 25 ug/mL hPD-1.09A vs SEB alone: 2 fold
  fold change in TNFalpha, SEB stimulated blood of patient B (prostate), 25 ug/mL hPD-1.09A vs SEB alone: 1.5 fold
  fold change in TNFalpha, SEB stimulated blood of patient C (prostate), 25 ug/mL hPD-1.09A vs SEB alone: 2.4 fold
  fold change in TNFalpha, SEB stimulated blood of patient D (melanoma), 25 ug/mL hPD-1.09A vs SEB alone: 1.9 fold

B5: hPD-1.08A (antibody, V domains shown)
VH: QVQLQQPGAELVKPGASVKLSCKASGYTFTSYYLYWMKQRPGQGLEWIGGVNPSNGGTNFSEKFKSKATLTVDKSSSTAYMQLSSLTSEDSAVYYCTRRDSNYDGGFDYWGQGTTLTVSS
VL: B4 VL with A9T, A20T, G28S, Y34F, S47P, Y53F, Y57N, R96W, D97E, T104A
[8]
  IC50: 0.00073 nM
[9]
  IC50 (read off the curve): ~0.7 nM
[10]
  IC50: 0.0009 nM
[11]
  EC50: 0.079 nM
[12]
  binding result: no binding
[13]
  IC50 (read off the curve): ~2 nM
[14]
  IC50: < 1 nM
[15]
  EC50 (read off the curve): ~0.08 nM
hPD-1/Fc (R & D Systems) [16]
  EC50: 0.076 nM
hPD-1/Fc (R & D Systems) [17]
  Kd: 0.0241 nM
  koff: 3.03e-05 s⁻¹
  kon: 1.25e+06 M⁻¹ s⁻¹
[18]
  binding result: binds
[20]
  IC50: 0.0021 nM
